Here are results for two molecules from patent US7691579B2, “Methods and compositions for producing an enhanced immune response to a human papillomavirus immunogen” (priority 2005, dated 2010).

The test system of one test is HPV16 pseudovirus. Briefly: Quantitative HPV16 pseudovirus neutralization assay with sera of vaccinated rabbits. The format is in vivo. The note with it: individual vaccinated rabbits. The source says: Development of Antibody Response to L1-VLP: To analyze the effect of the GM-CSF/anti-CD40 antibody combination on antibody response, an ELISA assay was employed to measure the titre of anti-L1-VLP antibodies in mice immunized with the chimeric L1-VLP-L2-E2-E7 construct, with or without the GM-CSF/anti-CD40 antibody combination. Both groups of mice produced high titers of anti-L1 VLP antibodies (FIG. 9). There is no detectable anti-L1 VLP antibody in the serum of mice immunized with E7 peptide in combination with GM-CSF and anti-CD40 in IFA, as expected. […] To confirm the prophylactic potential of the chimeric L1-VLP-L2-E7-E2 construct, the anti body titers raised against the chimeric L1-VLP-E7 E2 construct and the L1-VLPs were compared using a recently developed quantitative HPV16 pseudovirus neutralization assay. […]
To test whether the combination of VLP-E7E2 with immune-modulators affects the antibody response, the titer of anti-L1-VLP antibodies was evaluated by ELISA. […] To confirm the prophylactic potential of the chimeric VLPs, we compared the antibody titers raised against the chimeric VLP-E7E2 and wild type VLPs, using a recently developed quantitative HPV16 pseudovirus neutralization assay. […]

For test [1], the system named is EL-4 target cells pulsed with E7 49-57 peptides. The experiment in a line: CTL assay (51Cr release) with spleen cells of immunized C57BL/6 mice. The note with it: given in aqueous solution with VLP-E7E2. In kind it is in vivo. As for the experimental part: (§1) Immunization: Mice were immunized subcutaneously at the base of the tail with the chimeric VLPs. GM-CSF (Preprotech, Rocky Hill, N.J.) was given the day before and the same day as the VLP injection. Anti-CD40 (SouthernBiotech, Birmingham Ala.) was given with the VLP. Mice were also immunized with 50 nmoles of peptide in incomplete Freund's adjuvant (IFA) with or without GM-CSF (5 μg/mouse) and anti-CD40 (10 μg/mouse). All vaccines were prepared immediately prior to injection. Each group had 4 mice, and the pooled spleen cells from four mice were used for assays. 10 μg of VLP-E7E2 was given to a mouse. The MW of the VLP-E7E2 is about 5280 Kd (72×L1@55 Kd=3960 Kd, and 12×L2E7E2@110 kd=1320 Kd). The number of moles of VLP-E7E2 in 10 μg of total protein is about […].
(§2) CTL assay: Two (or three) weeks after immunization, spleens were aseptically removed and single cell suspensions are prepared. […] Cytolytic activity of cells is measured by a 4-h assay with ^51Cr-labeled EL-4 or C1R.AAD target cells in triplicate wells. Percent ^51Cr release is calculated as 100×(experimental release-spontaneous release)/(maximum release-spontaneous release). Maximum release is determined from supernatants of cells that are lysed by addition of […]. Spontaneous release is determined from target cells culture in medium. Data are expressed as an average from triplicate wells. […]

Test [2] relates to C1R.AAD target cells pulsed with E7 11-20 and E7 86-93 peptides. The experiment in a line: CTL assay (51Cr release) with spleen cells of immunized AAD mice, response to E7. In kind it is in vivo, HLA-A2 transgenic mice (AAD). To be noted: co-injected in aqueous solution. As for the experimental part: as §1, §2
The subject of a further test is CD11c+ dendritic cells. The experiment in a line: FACScan analysis of dendritic cells in draining lymph nodes of immunized mice. In kind it is in vivo, HLA-A2 transgenic mice (AAD). The note with it: in VLP-E7E2 immunized mice, aqueous solution. The protocol:
Draining lymph nodes were collected six days after immunization for FACScan analysis. Mice are immunized with 10 μg of chimeric VLP-E7 with or without GM-CSF or an anti-CD40L antibody. Draining inguinal lymph nodes are collected one week after immunization for FACScan analysis. The immunization protocols employed are as follows: Panel A—VLP-E7; Panel B—VLP-E7F+GM-CSF; Panel C—VLP-E7+anti-CD40 antibody; Panel D—VLP-E7+GM-CSF+anti-CD40 antibody. For Data 003, 010, 017, and 024, the percentage of gated is the sum of the number from the upper left and upper right quadrants. For the rest of the data, the percentage of gated is the number from the upper right quadrant indicating the CD80, CD 86 and CD40 positive cells.
Flow cytometric analysis and Abs: Lymph node cells (1×10^6) are taken from mice one week after immunization. […] Data files are analyzed using CellQuest software (BD Biosciences, Mountain View, Calif.).
DCS Play An Important Role In VLP-E7E2/GM-CSF/Anti-CD40 Induced CTL Response In Vivo: It is known that GM-CSF and anti-CD40 play important roles in DC activation (Gurunathan, S. et al. 1998 J. Immunol. 161:4563-4571; Ahlers, J. D. et al. 1997 PNAS USA 94:10856-10861). […] In the Examples reported herein, the phenotypic changes of DC in the draining lymph nodes (DLN) of vaccinated mice were analyzed. […]

“And” between values parts separate entries of the source, which are not always exact repeats. Equal entries are not always repeated.

On to “L1-VLP: VLP of the full length L1 capsid protein of HPV16, control”, for which the neutralizing titers was 40,960 and 163,840 with HPV16 pseudovirus (listed as L1-VLP construct); 163,840 with HPV16 pseudovirus (listed as wild type VLPs).

B1: GM-CSF: murine granulocyte/macrophage colony stimulating factor (Preprotech) (protein, UniProt P01587 18-141, looked up)
Granulocyte-macrophage …: APTRSPITVTRPWKHVEAIKEALNLLDDMPVTLNEEVEVVSNEFSFKKLTCVQTRLKIFEQGLRGNFTKLKGALNMTASYYQTYCPPTPETDCETQVTTYADFIDSLKTFLTDIPFECKKPGQK
On to B1, for which the “effect on the VLP-E7E2 induced CTL response” value in test [1] is listed as “no effect”. The “effect of co-injection on the VLP-E7E2-induced CTL response to E7” value in test [2] is recorded as “no effect”. Also, the “recruitment or activation of the DCs” value in the test on CD11c+ dendritic cells was “no effect”.
